Results reported in PMC8125816, “Relative Importance of Soluble and Microsomal Epoxide Hydrolases for the Hydrolysis of Epoxy-Fatty Acids in Human Tissues” (International Journal of Molecular Sciences, 2021).

Columns and labels:
Assay in all cases: LC/MS-MS of diol formed
Type in all cases: biochemical, Homo sapiens
[1] = substrate: CCCCCC1OC1C/C=C\C/C=C\C/C=C\CCCC(=O)O; conditions: sodium phosphate 0.1 M pH 7.4, 0.1 mg/mL BSA, 37 °C, crude membrane extract
Text: (§1) LC/MS-MS of diol formed on EH3

[2] = substrate: CC/C=C\C/C=C\CC1OC1C/C=C\C/C=C\C/C=C\CCC(=O)O; conditions: sodium phosphate 0.1 M pH 7.4, 0.1 mg/mL BSA, 37 °C, crude membrane extract
Text: as §1

[3] = substrate: CCCCC/C=C\C/C=C\CC1OC1C/C=C\CCCC(=O)O; conditions: sodium phosphate 0.1 M pH 7.4, 0.1 mg/mL BSA, 37 °C, crude membrane extract
Text: as §1

[4] = substrate: CCCCC/C=C\C[C@@H]1O[C@H]1/C=C/C(O)C/C=C\CCCC(=O)O; conditions: sodium phosphate 0.1 M pH 7.4, 0.1 mg/mL BSA, 37 °C, crude membrane extract
Text: as §1

[5] = substrate: CCCCCC1OC1C/C=C\C/C=C\C/C=C\CCCC(=O)O; conditions: Tris/HCl 0.1 M pH 9.0, 0.1 mg/mL BSA, 37 °C
Text: (§2) LC/MS-MS of diol formed on mEH

[6] = substrate: CC/C=C\C/C=C\CC1OC1C/C=C\C/C=C\C/C=C\CCC(=O)O; conditions: Tris/HCl 0.1 M pH 9.0, 0.1 mg/mL BSA, 37 °C
Text: as §2

[7] = substrate: CCCCC/C=C\C/C=C\CC1OC1C/C=C\CCCC(=O)O; conditions: Tris/HCl 0.1 M pH 9.0, 0.1 mg/mL BSA, 37 °C
Text: as §2

[8] = substrate: CCCCC/C=C\C[C@@H]1O[C@H]1/C=C/C(O)C/C=C\CCCC(=O)O; conditions: Tris/HCl 0.1 M pH 9.0, 0.1 mg/mL BSA, 37 °C
Text: as §2

B1: EH3 (Homo sapiens) (protein)
chain: MPELVVTALLAPSRLSLKLLRAFMWSLVFSVALVAAAVYGCIALTHVLCRPRRGCCGRRRSASPACLSDPSLGEHGFLNLKSSGLRLHYVSAGRGNGPLMLFLHGFPENWFSWRYQLREFQSRFHVVAVDLRGYGPSDAPRDVDCYTIDLLLVDIKDVILGLGYSKCILVAHDWGALLAWHFSIYYPSLVERMVVVSGAPMSVYQDYSLHHISQFFRSHYMFLFQLPWLPEKLLSMSDFQILKTTLTHRKTGIPCLTPSELEAFLYNFSQPGGLTGPLNYYRNLFRNFPLEPQELTTPTLLLWGEKDTYLELGLVEAIGSRFVPGRLEAHILPGIGHWIPQSNPQEMHQYMWAFLQDLLD
- Km [1]: 76 ± 16 µM
- Vmax [1]: 0.027 µmol/min/mg
- kcat [1]: 0.018 ± 0.003 s⁻¹
- kcat/Km [1]: 240 ± 10 M⁻¹ s⁻¹
- Km [2]: 4.3 ± 1.2 µM
- Vmax [2]: 0.121 µmol/min/mg
- kcat [2]: 0.08 ± 0.01 s⁻¹
- kcat/Km [2]: 19000 ± 3000 M⁻¹ s⁻¹
- Km [3]: 10 ± 0.5 µM
- Vmax [3]: 0.044 µmol/min/mg
- kcat [3]: 0.03 ± 0.001 s⁻¹
- kcat/Km [3]: 3000 ± 200 M⁻¹ s⁻¹
- Km [4]: 14 ± 1 µM
- Vmax [4]: 0.017 µmol/min/mg
- kcat [4]: 0.014 ± 0.001 s⁻¹
- kcat/Km [4]: 1010 ± 30 M⁻¹ s⁻¹

B2: mEH (Homo sapiens) (protein)
chain: MWLEILLTSVLGFAIYWFISRDKEETLPLEDGWWGPGTRSAAREDDSIRPFKVETSDEEIHDLHQRIDKFRFTPPLEDSCFHYGFNSNYLKKVISYWRNEFDWKKQVEILNRYPHFKTKIEGLDIHFIHVKPPQLPAGHTPKPLLMVHGWPGSFYEFYKIIPLLTDPKNHGLSDEHVFEVICPSIPGYGFSEASSKKGFNSVATARIFYKLMLRLGFQEFYIQGGDWGSLICTNMAQLVPSHVKGLHLNMALVLSNFSTLTLLLGQRFGRFLGLTERDVELLYPVKEKVFYSLMRESGYMHIQCTKPDTVGSALNDSPVGLAAYILEKFSTWTNTEFRYLEDGGLERKFSLDDLLTNVMLYWTTGTIISSQRFYKENLGQGWMTQKHERMKVYVPTGFSAFPFELLHTPEKWVRFKYPKLISYSYMVRGGHFAAFEEPELLAQDIRKFLSVLERQ
- Km [5]: 80 ± 6 µM
- Vmax [5]: 0.053 µmol/min/mg
- kcat [5]: 0.044 ± 0.003 s⁻¹
- kcat/Km [5]: 550 ± 10 M⁻¹ s⁻¹
- Km [6]: 2.9 ± 0.4 µM
- Vmax [6]: 0.445 µmol/min/mg
- kcat [6]: 0.37 ± 0.01 s⁻¹
- kcat/Km [6]: 130000 ± 20000 M⁻¹ s⁻¹
- Km [7]: 2.5 ± 0.6 µM
- Vmax [7]: 0.038 µmol/min/mg
- kcat [7]: 0.032 ± 0.002 s⁻¹
- kcat/Km [7]: 13000 ± 1000 M⁻¹ s⁻¹
- Km [8]: 51 ± 14 µM
- Vmax [8]: 0.023 µmol/min/mg
- kcat [8]: 0.019 ± 0.003 s⁻¹
- kcat/Km [8]: 370 ± 60 M⁻¹ s⁻¹
